Measured values from US20250115676A1.

Experiments:
[1] = target: shADAM9-His (His-tagged soluble human ADAM9) (human) (UniProt Q13443); test: BIACORE SPR; antibody captured on Fab2 goat anti-human Fc surface, shADAM9-His 6.25-100 nM as analyte; 1:1 Langmuir
[2] = target: shADAM9-His (His-tagged soluble human ADAM9) (human) (UniProt Q13443); test: binding affinity study (BIACORE, Table 7); reference not named
[3] = target: shADAM9-His (His-tagged soluble human ADAM9) (human) (UniProt Q13443); test: BIACORE SPR; antibody captured, huADAM9-His as analyte

Binder	Kd [1] [nM]	fold increase in affinity [2] [fold]	Kd [3] [nM]	koff [3] [s⁻¹]	kon [3] [M⁻¹ s⁻¹]
chMAB-A (antibody, V domains shown) VH: QVQLQQPGAELVKPGASVKLSCKASGYTFTSYWMHWVKQRPGQGLEWIGEIIPINGHTNYNEKFKSKATLTLDKSSSTAYMQLSSLASEDSAVYYCARGGYYYYGSRDYFDYWGQGTTLTVSS VL: DIVLTQSPASLAVSLGQRATISCKASQSVDYDGDSYMNWYQQIPGQPPKLLIYAASDLESGIPARFSGSGSGTDFTLNIHPVEEEDAATYYCQQSHEDPFTFGGGTKLEIK	3.6	–	–	–	–
hMAB-A (2.3) (antibody, V domains shown) VH: EVQLVESGGGLVKPGGSLRLSCAASGFTFSSYWMHWVRQAPGKGLEWVGEIIPIFGHTNYNEKFKSRFTISLDNSKNTLYLQMGSLRAEDTAVYYCARGGYYYYGSRDYFDYWGQGTTVTVSS VL: DIVMTQSPDSLAVSLGERATISCRASQSVDYSGDSYMNWYQQKPGQPPKLLIYAASDLESGIPARFSGSGSGTDFTLTISSLEPEDFATYYCQQSHEDPFTFGQGTKLEIK	1.3	2	–	–	–
hMAB-A (1.1) (antibody, V domains shown) VH: EVQLVESGGGLVKPGGSLRLSCAASGFTFSSYWMHWVRQAPGKGLEWVGEIIPINGHTNYNEKFKSRFTISLDNSKNTLYLQMGSLRAEDTAVYYCARGGYYYYGSRDYFDYWGQGTTVTVSS VL: DIVMTQSPDSLAVSLGERATISCKASQSVDYDGDSYMNWYQQKPGQPPKLLIYAASDLESGIPARFSGSGSGTDFTLTISSLEPEDFATYYCQQSHEDPFTFGQGTKLEIK	3.5	–	–	–	–
hMAB-A (2.2) (antibody, V domains shown) VH: EVQLVESGGGLVKPGGSLRLSCAASGFTFSSYWMHWVRQAPGKGLEWVGEIIPIFGHTNYNEKFKSRFTISLDNSKNTLYLQMGSLRAEDTAVYYCARGGYYYYGSRDYFDYWGQGTTVTVSS VL: DIVMTQSPDSLAVSLGERATISCKASQSVDYSGDSYMNWYQQKPGQPPKLLIYAASDLESGIPARFSGSGSGTDFTLTISSLEPEDFATYYCQQSHEDPFTFGQGTKLEIK	1.4	2	0.6	0.00055	900000
hMAB-A (2B.2) (antibody, V domains shown) VH: EVQLVESGGGLVKPGGSLRLSCAASGFTFSSYWMHWVRQAPGKGLEWVGEIIPIFGHTNYNEKFKSRFTISLDNSKNTLYLQMGSLRAEDTAVYYCARGGYYYYIGKGVLDYWGQGTTVTVSS VL: DIVMTQSPDSLAVSLGERATISCKASQSVDYSGDSYMNWYQQKPGQPPKLLIYAASDLESGIPARFSGSGSGTDFTLTISSLEPEDFATYYCQQSHEDPFTFGQGTKLEIK	–	–	0.6	0.00039	610000

Second part, the binder after the results:

Kd [1] [nM]	fold increase in affinity [2] [fold]	Kd [3] [nM]	koff [3] [s⁻¹]	kon [3] [M⁻¹ s⁻¹]	Binder
2	–	–	–	–	hMAB-A (4.4) (antibody, V domains shown) VH: EVQLVESGGGLVKPGGSLRLSCAASGFTFSSYWIHWVRQAPGKGLEWVGEIIPIFGHTNYNERFQGRFTISLDNSKNTLYLQMGSLRAEDTAVYYCARGGYYYYGSRDYFDYWGQGTTVTVSS VL: DIVMTQSPDSLAVSLGERATISCRASQSVDYSGDSYLNWYQQKPGQPPKLLIYAASDLESGIPARFSGSGSGTDFTLTISSLEPEDFATYYCQQSYSTPFTFGQGTKLEIK
1.4	2	–	–	–	hMAB-A (3.3) (antibody, V domains shown) VH: EVQLVESGGGLVKPGGSLRLSCAASGFTFSSYWMHWVRQAPGKGLEWVGEIIPIFGHTNYNERFQGRFTISLDNSKNTLYLQMGSLRAEDTAVYYCARGGYYYYGSRDYFDYWGQGTTVTVSS VL: DIVMTQSPDSLAVSLGERATISCRASQSVDYSGDSYMNWYQQKPGQPPKLLIYAASDLESGIPARFSGSGSGTDFTLTISSLEPEDFATYYCQQSHEDPFTFGQGTKLEIK
–	–	0.8	0.00058	690000	hMAB-A (2D.2) (antibody, V domains shown) VH: EVQLVESGGGLVKPGGSLRLSCAASGFTFSSYWMHWVRQAPGKGLEWVGEIIPIFGHTNYNEKFKSRFTISLDNSKNTLYLQMGSLRAEDTAVYYCARGGYYYYTGKGVLDYWGQGTTVTVSS VL: DIVMTQSPDSLAVSLGERATISCKASQSVDYSGDSYMNWYQQKPGQPPKLLIYAASDLESGIPARFSGSGSGTDFTLTISSLEPEDFATYYCQQSHEDPFTFGQGTKLEIK
–	–	1.4	0.00081	590000	hMAB-A (2C.2) (antibody, V domains shown) VH: EVQLVESGGGLVKPGGSLRLSCAASGFTFSSYWMHWVRQAPGKGLEWVGEIIPIFGHTNYNEKFKSRFTISLDNSKNTLYLQMGSLRAEDTAVYYCARGGYYYYPRFGWLDYWGQGTTVTVSS VL: DIVMTQSPDSLAVSLGERATISCKASQSVDYSGDSYMNWYQQKPGQPPKLLIYAASDLESGIPARFSGSGSGTDFTLTISSLEPEDFATYYCQQSHEDPFTFGQGTKLEIK
–	–	0.4	0.00023	660000	hMAB-A (2I.2) (antibody, V domains shown) VH: EVQLVESGGGLVKPGGSLRLSCAASGFTFSSYWMHWVRQAPGKGLEWVGEIIPIFGHTNYNEKFKSRFTISLDNSKNTLYLQMGSLRAEDTAVYYCARGGYYYYPRQGFLDYWGQGTTVTVSS VL: DIVMTQSPDSLAVSLGERATISCKASQSVDYSGDSYMNWYQQKPGQPPKLLIYAASDLESGIPARFSGSGSGTDFTLTISSLEPEDFATYYCQQSHEDPFTFGQGTKLEIK
